Results on one substance are retold here after patent US20200292536A1.

Assay [1] addresses BCL2 peptide Ac-…-amide (amino acids 41-54 of human BCL2 with linkers) (human). Kind of assay: imaging mass cytometry; peptide 2.50E-07 M in core (second core); Ab 10 ug/ml.
Assay [2] shares this target. Kind of assay: imaging mass cytometry; peptide 2.50E-06 M in core; Ab 1 ug/ml.
The target is the same in assay [3]. Kind of assay: imaging mass cytometry; peptide 2.50E-04 M in core.
The target is the same in assay [4]. Nature of the assay: imaging mass cytometry; peptide 2.50E-07 M in core; Ab 10 ug/ml.
Assay [5] has the same target. Kind of assay: imaging mass cytometry; peptide 2.50E-07 M in core (second core); Ab 1 ug/ml.
The target is the same in assay [6]. Kind of assay: imaging mass cytometry; peptide 2.50E-07 M in core.
For assay [7] the target is unchanged. Nature of the assay: imaging mass cytometry; peptide 2.50E-08 M in core (second core); Ab 5 ug/ml.
Assay [8] shares this target. Nature of the assay: imaging mass cytometry; peptide 2.50E-05 M in core; Ab 1 ug/ml.
The target is the same in assay [9]. Kind of assay: imaging mass cytometry; peptide 2.50E-06 M in core (second core); Ab 1 ug/ml.
Assay [10] has the same target. Nature of the assay: imaging mass cytometry; peptide 2.50E-05 M in core.
For assay [11] the target is unchanged. Nature of the assay: imaging mass cytometry; peptide 2.50E-08 M in core; Ab 1 ug/ml.

Chain of BCL2 peptide Ac-…-amide (amino acids 41-54 of human BCL2 with linkers) (human) (peptide, as listed by the source): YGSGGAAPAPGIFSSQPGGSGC

As for Fluidigm EPR17509-^146Nd antibody, the Integrated Ion counts (per 150 micron square ROI) in assay [1] was found to be 1760 ion counts; in assay [2] it was 7750 ion counts; in assay [4] it was 1550 ion counts; in assay [5] it was 2380 ion counts; in [7] it was 2070 ion counts; in [8], 32400 ion counts. For the same substance, the Integrated Ion counts (per 150 micron square ROI) came to 7700 ion counts in [9] and 1450 ion counts in assay [11]. Moreover, the Average Ion count in [3] came out at 58300 ion counts; in [6], 1740 ion counts; in assay [10], 32600 ion counts. Further, the Ion count above background worked out at 56900 ion counts in assay [3], 562 ion counts in [6] and 31500 ion counts in [10]. Besides, the Moles ^146Nd Ab detected per ROI in assay [3] stood at 3.2e-17 mol; in assay [6], 3.15e-19 mol; in assay [10], 1.76e-17 mol. The ^146Nd Ab/peptide is 0.14% in assay [3], 1.4% in [6] and 0.78% in assay [10].
